Assay results from patent US20220313840A1 (ACADEMIA SINICA, published 2022).

Legend:
[1] = target: T1, endogenous EGFR on human carcinoma cell lines (human, UniProt P00533 25-1210); test: cell ELISA on human carcinoma cell lines with endogenous EGFR
T1 construct: whole, on cells; EGFR expression of the cell lines was checked by Western blotting; also called endogenous cellular EGFR; EGFR on FaDu and Ca9-22 cells

[2] = target: T1, endogenous EGFR on human carcinoma cell …; test: confocal microscopy of FaDu and Ca9-22 cells, anti-FLAG detection
Description: We produced soluble scFv from EGFR-PC10 and designated it as EGFR-s10. Target binding and internalization are essential requirements of LTL-targeting moieties. We investigated these features of EGFR-s10 in SCCHN cancer cell lines. FaDu cells and Ca9-22 cells were separately incubated with EGFR-sl0 at 4° C. or 37° C. for 30 min and compared with isotypic IgG controls. EGFR-sl0 bound to the cell membrane of FaDu and Ca9-22 cells at 4° C. […] (FIGS. 3A-B).

[3] = target: T1, endogenous EGFR on human carcinoma cell …; test: cell uptake, including EGFR-knockdown cells
Description: To evaluate whether internalization and targeting were preserved after EGFR-s10 ligation to liposomes, we tested EGFR-s10-conjugated liposomal SRB in the SCCHN cell lines FaDu and Ca9-22 cells at 37° C. for 30 min (FIGS. 3C-D). No compromise of internalization capacity was discernable in either cell line compared to the previous soluble EGFR-s10.

B1: EGFR-PC10 phage clone (phage-displayed human anti-EGFR scFv) (scFv)
scFv: EVQLVESGGGLVQPGGSLRLSCAASGFNLSSFWMSWVRQAPGKGLEWVANINHDGSDKYYVDSVKGRFSISRDNTKNSVYLQMDSLRGEDTAVYYCAKGKSLYDGSALDMWGQGTMVTVSSGGGGSGGGGSGGGGSDIVMTQSPSTLSASVGDRVTITCRASQTIGRWLAWYQQKPGKAPKLLIYGASSLQSGVPSRFSGSGSGTDFTLTISSLQPEDFATYYCQQSYSTLWTFGQGTKLEIKR
notes: Tested as whole phage particles displaying the scFv, detected with anti-M13 antibody; also called EFGR-PC10 phage; not shown: phage coat protein fusion of the M13 display system; not described
B1: binds [1].

B2: EGFR-s10 scFv (soluble scFv generated from phage clone EGFR-PC10) (scFv)
scFv: EVQLVESGGGLVQPGGSLRLSCAASGFNLSSFWMSWVRQAPGKGLEWVANINHDGSDKYYVDSVKGRFSISRDNTKNSVYLQMDSLRGEDTAVYYCAKGKSLYDGSALDMWGQGTMVTVSSGGGGSGGGGSGGGGSDIVMTQSPSTLSASVGDRVTITCRASQTIGRWLAWYQQKPGKAPKLLIYGASSLQSGVPSRFSGSGSGTDFTLTISSLQPEDFATYYCQQSYSTLWTFGQGTKLEIKR
notes: Expressed in E. coli HB2151 from the pFHC vector; also called EGFR-sl0; soluble anti-EGFR human scFv; not shown: flag, 6xHis and cysteine tag from the pFHC vector
B2: binds [2].

B3: EGFR-s10-conjugated ligand-targeting liposomes (LTLs) (other)
scFv: EVQLVESGGGLVQPGGSLRLSCAASGFNLSSFWMSWVRQAPGKGLEWVANINHDGSDKYYVDSVKGRFSISRDNTKNSVYLQMDSLRGEDTAVYYCAKGKSLYDGSALDMWGQGTMVTVSSGGGGSGGGGSGGGGSDIVMTQSPSTLSASVGDRVTITCRASQTIGRWLAWYQQKPGKAPKLLIYGASSLQSGVPSRFSGSGSGTDFTLTISSLQPEDFATYYCQQSYSTLWTFGQGTKLEIKR
modifications: reduced cysteine of the tag conjugated to Maleimide-PEG-DSPE inserted in a PEGylated liposome loaded with doxorubicin or vinorelbine
notes: also called EGFR-s10-LD; EGFR-s10-LV; not shown: flag, 6xHis and cysteine tag from the pFHC vector
B3: binds [3].
